These results are taken from US7880053B2, “Methods of using transformed plants expressing plant-derived acyl-coenzyme-A-binding proteins in phytoremediation” (priority 2007, dated 2011).

“Also recorded” adds a separate entry of the source.

The nature of experiment [1]: Heavy-metal-binding assay using metal-chelate affinity chromatography, Cd(II)-equilibrated matrix. Conditions: FIG. 2C. An excerpt: (§1) The coding regions of ACBP1, ACBP2 and ACBP6 were generated by RT-PCR for construction of pGEM-T EASY (Promega) derivatives for in vitro transcription/translation. Primers used in RT-PCR were as follows: ACBP1 (ML190 (SEQ ID NO:20) and ML917 (SEQ ID NO:17), ACBP2 (ML902 (SEQ ID NO:21) and ML903 (SEQ ID NO:22)), and ACBP6 (ML812 (SEQ ID NO:23) and ML751 (SEQ ID NO:2)). The PCR products were subsequently cloned into pGEM-T EASY vector (Promega) for in vitro transcription/translation using the TNT® T7/SP6 Coupled Wheat Germ Extract System (Promega) following the manufacturer's instruction. Pb(II)-, Cd(II)-, and Cu(II)-equilibrated matrices for metal-binding assays were prepared by stripping Ni-NTA agarose (Qiagen) of nickel and re-equilibrating with 0.1 M Pb(NO3)2 (Aldrich), CdCl2 (Aldrich), or CuCl2 (Aldrich). Twenty μl of Pb(II)-, Cd(II)-, or Cu(II)-equilibrated matrix, 545 μl of 50 mM KH2PO4, 300 mM NaCl, pH 7.4, and [^35S]methionine-labeled protein were added to a microfuge tube (Dykema et al., Plant Mol. Biol. 41: 139-150, 1999) and rotated on a wheel at 4° C. for 1 h. Subsequently, the matrix was washed 3 times with 1.0 ml of 50 mM KH2PO4, 300 mM NaCl, pH 7.5. […]

Experiment [2] can be described thus: Heavy-metal-binding assay using metal-chelate affinity chromatography, Pb(II)-equilibrated matrix. Conditions: for binding of in vitro translated ACBP to Pb(II): [35S]methionine-labeled protein, SDS-PAGE autoradiography, FIG. 2B. An excerpt:
The coding regions of ACBP1, ACBP2 and ACBP6 were generated by RT-PCR for construction of pGEM-T EASY (Promega) derivatives for in vitro transcription/translation. Primers used in RT-PCR were as follows: ACBP1 (ML190 (SEQ ID NO:20) and ML917 (SEQ ID NO:17), ACBP2 (ML902 (SEQ ID NO:21) and ML903 (SEQ ID NO:22)), and ACBP6 (ML812 (SEQ ID NO:23) and ML751 (SEQ ID NO:2)). The PCR products were subsequently cloned into pGEM-T EASY vector (Promega) for in vitro transcription/translation using the TNT® T7/SP6 Coupled Wheat Germ Extract System (Promega) following the manufacturer's instruction. Pb(II)-, Cd(II)-, and Cu(II)-equilibrated matrices for metal-binding assays were prepared by stripping Ni-NTA agarose (Qiagen) of nickel and re-equilibrating with 0.1 M Pb(NO3)2 (Aldrich), CdCl2 (Aldrich), or CuCl2 (Aldrich). Twenty μl of Pb(II)-, Cd(II)-, or Cu(II)-equilibrated matrix, 545 μl of 50 mM KH2PO4, 300 mM NaCl, pH 7.4, and [^35S]methionine-labeled protein were added to a microfuge tube (Dykema et al., Plant Mol. Biol. 41: 139-150, 1999) and rotated on a wheel at 4° C. for 1 h. Subsequently, the matrix was washed 3 times with 1.0 ml of 50 mM KH2PO4, 300 mM NaCl, pH 7.5. The binding protein was eluted with 200 μl of 50 mM KH2PO4, 300 mM NaCl, 500 mM imidazole, pH 4.5, followed by extraction with 200 μl of 2% SDS, 50 mM DTT, heating at 85° C. for 3 min and analysis by SDS-PAGE followed by autoradiography.

Experiment [3] in a line: Heavy-metal-binding assay using metal-chelate affinity chromatography, Cu(II)-equilibrated matrix. Conditions: FIG. 2C.
From the text: as §1

A further experiment deals with ACBP6 transcript. As to the kind of experiment: RT-PCR of ACBP transcripts in root after Pb(II) treatment. In kind it is in vivo, Arabidopsis thaliana. The conditions noted are these: 1 mM Pb(NO3)2, 24 h, 3-week-old Col-0 seedlings, FIG. 1. On the procedure: (§2) Arabidopsis thaliana wild-type Columbia (ecotype Col-0), ACBP1- and ACBP3-overexpressing transgenic plants (ecotype Col-0) were grown under 8 h dark at 21° C. and 16 h light at 23° C. cycles. For Pb(II)-inducible gene expression analysis, Arabidopsis seedlings were grown for 3 weeks in continuous light, treated with 1 mM Pb(NO3)2 or water (as control), and shoot and root samples were collected at 24 h post-treatment. For Pb(II) sensitivity tests, Arabidopsis seedlings were surface-sterilized and grown on Murashige and Skoog (Physiol. Plant. 15: 473-497, 1962) medium containing 2% sucrose with or without 0.75 mM Pb(NO3)2 (Sigma-Aldrich, St. Louis) for 2 to 3 weeks.
(§3) To determine if the regulation of Arabidopsis ACBP mRNAs responds to Pb(II) stress, we performed reverse transcription-PCR(RT-PCR) using root tissue RNA following treatment with 1 mM Pb(NO3)2. For RT-PCR, total RNA was extracted with TRIzol (Invitrogen) reagent, according to the manufacturer's protocol, from roots of 3-week-old wild-type Arabidopsis (Col-0) seedlings in the presence or absence (water as control) of 1 mM Pb(NO3)2. RT-PCR analysis was performed as according to the manufacturer (Invitrogen Cat No. 12371-019). Specific primers were designed based on mRNA sequences. […]

The subject of a further experiment is ACBP1 to ACBP5 mRNA. The description is as above. In kind it is in vivo, Arabidopsis thaliana. The conditions noted are these: 1 mM Pb(NO3)2, 24 h, 3-week-old Col-0 seedlings, FIG. 1. As for the experimental part: as §2, §3
Experiment [4] can be described thus: Lead-binding assay, fluorescence of dansylated (His)6-ACBP. The conditions noted are these: 1 to 9 μM Pb(II), FIG. 2A. On the procedure: Lead-binding assays and fluorescence measurements were carried out according to Funaba and Mathews (Mol. Endocrinol. 14:1583-1591, 2000) with minor modifications. Briefly, 3.2 μM of each purified (His)6-ACBP protein which was equilibrated in 20 mM phosphate buffer (pH 7.2) with 200 mM NaCl, were labeled with 8 μl of 200 mM dansyl aziridine (Molecular Probes, Cat. No. D151) and reacted for 2 h in a 1.5 ml Eppendorf tube at room temperature. The dansylated (His)6-ACBP proteins were then distributed to 8 wells of a 96-well microtiter plate (Nunc Cat. No. 236105). Various concentrations (0, 1.0, 2.0, 3.0, 4.0, 5.0, 7.0 and 9.0 μM) of Pb(NO3)2 (Aldrich, Cat. No. 203580) solutions were added and the reactions were incubated at room temperature for 1 h.
Fluorescence measurements were performed using a BIO-TEK FL600 Fluorescence Plate Reader (BIO-TEK Instrument, INC, USA) with excitation wavelength set at 360/40 nm and emission wavelength set at 530/25 nm. Prior to binding with lead, the dansyl aziridine coupled (His)6-ACBP recombinant proteins are sensitive to the conformational changes. After binding to Pb(II) molecules, the dansylated (His)6-ACBP recombinant proteins would change their conformations and the dye will show an increase in fluorescence excitation. […] Each experiment was repeated three times to ascertain results.

Where [5] appears, read: EDTA at 50 mM final concentration.
The mark [6] stands for this setting: [35S]methionine-labeled protein.

With `O=C(O)CN(CCN(CC(=O)O)CC(=O)O)CC(=O)O` [EDTA, ethylenediaminetetraacetic acid, reference compound], the “effect on binding of ACBP2 to Cd(II)” value in experiment [1] (setting [5]) is “inhibited”. In addition, in experiment [2] (EDTA at 50 mM final concentration, FIG. 2C), the “effect on binding of ACBP2 to Pb(II)” value was “inhibited”. Further, the “effect on binding of ACBP2 to Cu(II)” value in experiment [3] (setting [5]) is given as “inhibited”. Take `O=[N+]([O-])[O-].O=[N+]([O-])[O-].[Pb+2]` [Pb(II)]: the “transcript of ACBP6 in roots” value with ACBP6 transcript is “little change”. In addition, the “mRNA expressions of ACBP1 to ACBP5 in roots” value in the experiment with ACBP1 to ACBP5 mRNA is given as “increase”.

B1: ACBP2 (protein)
chain: MGDWAQLAQSVILGLIFSYLLAKLISIVVTFKEDNLSLTRHPEESQLEIKPEGVDSRRLDSSCGGFGGEADSLVAEQGSSRSDSVAGDDSEEDDDWEGVESTELDEAFSAATLFVTTAAADRLSQKVPSDVQQQLYGLYKIATEGPCTAPQPSALKMTARAKWQAWQKLGAMPPEEAMEKYIEIVTQLYPTWLDGGVKAGSRGGDDAASNSRGTMGPVFSSLVYDEESENELKIDAIHGFAREGEVENLLKSIESGIPVNARDSEGRTPLHWAIDRGHLNIAKVLVDKNADVNAKDNEGQTPLHYAVVCDREAIAEFLVKQNANTAAKDEDGNSPLDLCESDWPWIRDSAKQAD
modifications: Arabidopsis
With B1, in experiment [1] (setting [6]), the “binding of in vitro translated ACBP to Cd(II)” value is “binds Cd(II) and Cu(II) better than ACBP6”. For the same molecule, the “binding of in vitro translated ACBP to Pb(II)” value in experiment [2] is given as “bind Pb(II) better than ACBP6”. In addition, the “binding of in vitro translated ACBP to Cu(II)” value in experiment [3] (setting [6]) is “binds Cd(II) and Cu(II) better than ACBP6”.

B2: (His)6-ACBP4: recombinant (His)6-ACBP4 from pRSET B-derived vector pAT184 in E. coli (protein, UniProt Q9MA55 1-668, looked up)
Acyl-CoA-binding …: MAMPRATSGPAYPERFYAAASYVGLDGSDSSAKNVISKFPDDTALLLYALYQQATVGPCNTPKPSAWRPVEQSKWKSWQGLGTMPSIEAMRLFVKILEEDDPGWYSRASNDIPDPVVDVQINRAKDEPVVENGSTFSETKTISTENGRLAETQDKDVVSEDSNTVSVYNQWTAPQTSGQRPKARYEHGAAVIQDKMYIYGGNHNGRYLGDLHVLDLKSWTWSRVETKVATESQETSTPTLLAPCAGHSLIAWDNKLLSIGGHTKDPSESMQVKVFDPHTITWSMLKTYGKPPVSRGGQSVTMVGKTLVIFGGQDAKRSLLNDLHILDLDTMTWDEIDAVGVSPSPRSDHAAAVHAERFLLIFGGGSHATCFDDLHVLDLQTMEWSRPAQQGDAPTPRAGHAGVTIGENWFIVGGGDNKSGASESVVLNMSTLAWSVVASVQGRVPLASEGLSLVVSSYNGEDVLVAFGGYNGRYNNEINLLKPSHKSTLQTKTLEAPLPGSLSAVNNATTRDIESEVEVSQEGRVREIVMDNVNPGSKVEGNSERIIATIKSEKEELEASLNKERMQTLQLRQELGEAELRNTDLYKELQSVRGQLAAEQSRCFKLEVDVAELRQKLQTLETLQKELELLQRQKAASEQAAMNAKRQGSGGVWGWLAGSPQEKDDDSP
modifications: His6 tag
notes: recombinant (His)6-ACBP4 from pRSET B-derived vector pAT184 in E. coli
Consider B2, for which the “relative fluorescence intensity in the presence of Pb(II), indicative of binding to Pb(II)” value in experiment [4] was “much higher than the other recombinant ACBPs”.

B3: (His)6-ACBP6: recombinant (His)6-ACBP6, 18.9 kDa inclusive of His-tag, from vector pAT335 in E. coli (protein, UniProt P57752 1-92, looked up)
Acyl-CoA-binding …: MGLKEEFEEHAEKVNTLTELPSNEDLLILYGLYKQAKFGPVDTSRPGMFSMKERAKWDAWKAVEGKSSEEAMNDYITKVKQLLEVAASKAST
modifications: His6 tag
notes: recombinant (His)6-ACBP6, 18.9 kDa inclusive of His-tag, from vector pAT335 in E. coli
Turning to B3, in experiment [4], the “relative fluorescence intensity in the presence of Pb(II), indicative of binding to Pb(II)” value was “bind Pb(II) less well than ACBP1”.

B4: ACBP6: in vitro translated [35S]methionine-labeled Arabidopsis ACBP6 (SEQ ID NO: 26), 10-kDa ACBP (protein)
chain: B3 Acyl-CoA-binding …
modifications: Arabidopsis
Consider B4, for which the “binding of in vitro translated ACBP to Pb(II)” value in experiment [2] is on record as “bind Pb(II) less well than ACBP1”.

B5: ACBP1: in vitro translated [35S]methionine-labeled Arabidopsis ACBP1 (SEQ ID NO: 27), wheat germ extract system (protein)
chain: MADWYQLAQSIIFGLIFAYLLAKLISILLAFKDENLSLTRNHTTQSEYENLRKVETLIGISGETDSLIAEQGSLRGDEDESDDDDWEGVESTELDEAFSAATAFVAAAASDRLSQKVSNELQLQLYGLYKIATEGPCTAPQPSALKMTARAKWQAWQKLGAMPPEEAMEKYIDLVTQLYPAWVEGGSKRRNRSGEAAGPMGPVFSSLVYEEESDNELKIDAIHAFAREGEVENLLKCIENGIPVNARDSEGRTPLHWAIDRGHLNVAEALVDKNADVNAKDNEGQTSLHYAVVCEREALAEFLVKQKADTTIKDEDGNSPLDLCESEWSWMREKKDSN
modifications: Arabidopsis
In the case of B5, in experiment [2], the “binding of in vitro translated ACBP to Pb(II)” value is “bind Pb(II) better than ACBP6; also recorded: slightly better binding than ACBP2”.
